Read-outs that look alike come from different tables or passages of the source.
Legend:
[1] = target: T1, human αvβ6 on 293F:huβ6 cells (human, UniProt P06756 31-1048; P18564 22-788); test: saturation binding on 293F cells; AF647-labeled
T1 chain 1: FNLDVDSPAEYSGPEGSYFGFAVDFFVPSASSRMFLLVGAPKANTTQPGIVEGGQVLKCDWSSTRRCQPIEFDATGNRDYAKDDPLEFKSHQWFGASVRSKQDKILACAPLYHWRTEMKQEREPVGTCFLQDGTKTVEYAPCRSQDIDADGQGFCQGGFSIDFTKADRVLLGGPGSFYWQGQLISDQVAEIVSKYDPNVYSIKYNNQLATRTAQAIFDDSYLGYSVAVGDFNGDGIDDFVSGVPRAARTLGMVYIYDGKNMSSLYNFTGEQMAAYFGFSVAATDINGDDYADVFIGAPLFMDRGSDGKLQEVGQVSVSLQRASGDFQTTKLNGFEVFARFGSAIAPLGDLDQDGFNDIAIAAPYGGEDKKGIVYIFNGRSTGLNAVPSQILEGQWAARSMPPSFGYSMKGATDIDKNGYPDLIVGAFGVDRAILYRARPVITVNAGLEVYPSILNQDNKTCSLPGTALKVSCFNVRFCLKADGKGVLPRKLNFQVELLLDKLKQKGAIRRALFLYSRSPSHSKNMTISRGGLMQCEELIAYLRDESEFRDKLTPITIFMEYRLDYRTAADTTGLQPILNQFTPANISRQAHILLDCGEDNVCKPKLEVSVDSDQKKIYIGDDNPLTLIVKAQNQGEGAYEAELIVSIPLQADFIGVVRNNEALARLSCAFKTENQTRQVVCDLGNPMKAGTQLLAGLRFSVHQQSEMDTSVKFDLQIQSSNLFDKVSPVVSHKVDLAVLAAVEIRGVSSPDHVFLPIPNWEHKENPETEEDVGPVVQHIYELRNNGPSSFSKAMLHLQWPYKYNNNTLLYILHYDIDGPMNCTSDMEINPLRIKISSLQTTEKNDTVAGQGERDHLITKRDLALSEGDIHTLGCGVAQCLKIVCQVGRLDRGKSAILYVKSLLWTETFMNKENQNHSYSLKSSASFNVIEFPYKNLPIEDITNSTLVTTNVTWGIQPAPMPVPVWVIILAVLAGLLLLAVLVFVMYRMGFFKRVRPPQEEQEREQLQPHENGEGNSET
T1 chain 2: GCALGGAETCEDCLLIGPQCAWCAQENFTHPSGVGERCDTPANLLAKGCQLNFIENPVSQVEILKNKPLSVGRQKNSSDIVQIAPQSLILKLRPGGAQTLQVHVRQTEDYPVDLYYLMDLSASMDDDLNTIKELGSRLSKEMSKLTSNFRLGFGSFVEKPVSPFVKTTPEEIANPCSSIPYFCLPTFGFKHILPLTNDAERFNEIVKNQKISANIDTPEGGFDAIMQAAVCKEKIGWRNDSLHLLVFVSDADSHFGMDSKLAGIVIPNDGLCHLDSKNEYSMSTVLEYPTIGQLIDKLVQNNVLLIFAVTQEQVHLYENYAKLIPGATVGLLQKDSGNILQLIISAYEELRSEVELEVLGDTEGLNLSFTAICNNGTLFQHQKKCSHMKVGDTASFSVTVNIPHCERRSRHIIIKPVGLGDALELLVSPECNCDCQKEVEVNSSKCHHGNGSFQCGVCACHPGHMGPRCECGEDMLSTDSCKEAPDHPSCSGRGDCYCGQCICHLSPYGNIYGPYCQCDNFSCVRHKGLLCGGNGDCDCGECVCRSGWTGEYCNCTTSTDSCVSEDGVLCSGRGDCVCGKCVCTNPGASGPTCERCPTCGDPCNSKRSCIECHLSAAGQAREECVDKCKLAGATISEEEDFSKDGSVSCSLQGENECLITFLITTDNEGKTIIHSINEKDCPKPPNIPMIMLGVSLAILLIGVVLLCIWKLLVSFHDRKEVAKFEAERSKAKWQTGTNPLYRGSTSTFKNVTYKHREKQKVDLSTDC

[2] = target: T2, cyno αvβ6 on 293F:cynoβ6 cells (human;Macaca fascicularis, UniProt P06756 31-1048; A0A2K5TZ36 22-787); test: saturation binding on 293F cells; AF647-labeled
T2 chain 1: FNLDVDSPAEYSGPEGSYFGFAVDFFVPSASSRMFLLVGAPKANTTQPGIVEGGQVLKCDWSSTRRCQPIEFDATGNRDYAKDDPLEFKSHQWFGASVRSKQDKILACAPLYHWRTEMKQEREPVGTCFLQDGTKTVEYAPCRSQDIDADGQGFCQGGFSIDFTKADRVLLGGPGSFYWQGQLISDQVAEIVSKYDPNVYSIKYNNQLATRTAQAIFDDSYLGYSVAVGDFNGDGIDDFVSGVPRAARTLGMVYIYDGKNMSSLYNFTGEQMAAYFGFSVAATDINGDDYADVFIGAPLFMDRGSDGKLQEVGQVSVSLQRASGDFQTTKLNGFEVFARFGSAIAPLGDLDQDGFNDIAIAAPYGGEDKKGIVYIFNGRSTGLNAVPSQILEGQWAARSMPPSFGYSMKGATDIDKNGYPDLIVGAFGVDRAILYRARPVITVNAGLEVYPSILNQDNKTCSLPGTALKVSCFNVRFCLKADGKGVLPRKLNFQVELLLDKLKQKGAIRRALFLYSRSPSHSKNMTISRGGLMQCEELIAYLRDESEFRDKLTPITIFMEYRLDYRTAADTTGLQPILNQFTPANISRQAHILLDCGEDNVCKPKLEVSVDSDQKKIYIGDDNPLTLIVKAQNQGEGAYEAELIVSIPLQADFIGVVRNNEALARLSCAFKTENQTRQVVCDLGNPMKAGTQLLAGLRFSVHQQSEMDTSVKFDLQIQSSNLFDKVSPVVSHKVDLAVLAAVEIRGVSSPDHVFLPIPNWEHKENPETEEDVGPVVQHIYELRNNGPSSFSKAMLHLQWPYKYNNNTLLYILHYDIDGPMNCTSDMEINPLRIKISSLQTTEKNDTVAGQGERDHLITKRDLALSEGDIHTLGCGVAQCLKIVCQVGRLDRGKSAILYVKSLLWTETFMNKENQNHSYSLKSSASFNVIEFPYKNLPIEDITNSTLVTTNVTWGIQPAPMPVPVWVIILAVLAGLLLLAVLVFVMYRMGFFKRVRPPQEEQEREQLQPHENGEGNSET
T2 chain 2: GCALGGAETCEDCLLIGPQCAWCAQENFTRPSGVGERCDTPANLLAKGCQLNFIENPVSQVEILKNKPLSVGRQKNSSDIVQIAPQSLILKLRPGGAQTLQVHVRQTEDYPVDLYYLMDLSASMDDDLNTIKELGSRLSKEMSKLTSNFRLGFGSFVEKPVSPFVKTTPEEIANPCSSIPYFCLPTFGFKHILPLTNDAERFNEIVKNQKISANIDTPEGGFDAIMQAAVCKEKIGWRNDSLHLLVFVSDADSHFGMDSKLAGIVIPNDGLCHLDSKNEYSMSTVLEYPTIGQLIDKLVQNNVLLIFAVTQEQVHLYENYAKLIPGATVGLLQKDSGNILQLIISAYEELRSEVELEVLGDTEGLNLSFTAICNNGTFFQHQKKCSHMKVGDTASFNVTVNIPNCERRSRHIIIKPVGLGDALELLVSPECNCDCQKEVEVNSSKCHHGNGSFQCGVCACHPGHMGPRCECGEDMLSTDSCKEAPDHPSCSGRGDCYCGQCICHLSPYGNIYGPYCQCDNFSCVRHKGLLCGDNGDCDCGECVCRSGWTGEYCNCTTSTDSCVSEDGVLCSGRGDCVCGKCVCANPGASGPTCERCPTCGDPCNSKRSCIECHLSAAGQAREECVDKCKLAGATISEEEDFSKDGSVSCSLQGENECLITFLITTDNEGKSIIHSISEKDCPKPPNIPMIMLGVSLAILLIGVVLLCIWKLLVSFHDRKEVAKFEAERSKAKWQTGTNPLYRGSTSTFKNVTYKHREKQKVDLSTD

[3] = target: T3, αvβ5 on the αvβ5-positive parental line (293F:vector) (human, UniProt P06756 31-1048; P18084 24-799); test: FMAT and flow cytometry binding studies on cells
T3 construct: whole, on cells; HEK293F cells transfected with the empty vector, used as negative control; also called HEK293F:vector
T3 sequence (P18084 24-799, one chain of several): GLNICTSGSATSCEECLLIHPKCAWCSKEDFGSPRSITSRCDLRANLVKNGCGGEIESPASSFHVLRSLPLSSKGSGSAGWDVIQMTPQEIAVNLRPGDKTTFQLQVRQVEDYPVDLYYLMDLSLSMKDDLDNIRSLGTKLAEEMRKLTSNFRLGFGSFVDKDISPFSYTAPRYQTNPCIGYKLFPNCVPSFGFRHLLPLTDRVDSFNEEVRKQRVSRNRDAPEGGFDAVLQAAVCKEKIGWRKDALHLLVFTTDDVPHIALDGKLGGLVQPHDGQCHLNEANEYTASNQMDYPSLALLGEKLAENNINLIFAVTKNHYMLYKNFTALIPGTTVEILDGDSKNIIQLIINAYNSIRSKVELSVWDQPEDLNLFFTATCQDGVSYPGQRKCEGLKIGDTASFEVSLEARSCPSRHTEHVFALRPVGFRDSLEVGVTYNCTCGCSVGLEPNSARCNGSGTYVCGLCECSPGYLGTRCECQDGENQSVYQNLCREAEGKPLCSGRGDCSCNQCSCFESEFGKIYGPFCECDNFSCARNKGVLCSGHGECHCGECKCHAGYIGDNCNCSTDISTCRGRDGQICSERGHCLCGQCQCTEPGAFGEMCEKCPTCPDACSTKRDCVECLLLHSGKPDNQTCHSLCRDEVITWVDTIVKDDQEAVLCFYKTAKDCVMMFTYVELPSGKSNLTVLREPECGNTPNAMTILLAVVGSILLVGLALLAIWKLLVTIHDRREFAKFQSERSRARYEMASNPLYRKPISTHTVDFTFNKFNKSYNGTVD

[4] = target: T4, human αvβ6 on 293F:huβ6 cells (human, UniProt P06756 31-1048; P18564 22-788); test: FMAT and flow cytometry binding studies on cells
T4 construct: whole, on cells; also called HEK293F:huβ6

[5] = target: T1, human αvβ6 on 293F:huβ6 cells; test: competition binding on 293F cells; 2nM m2A2-AF647 competitor
[6] = target: T1, human αvβ6 on 293F:huβ6 cells; test: saturation binding on 293F cells; AF647-labeled
[7] = target: T2, cyno αvβ6 on 293F:cynoβ6 cells; test: saturation binding on 293F cells; AF647-labeled
[8] = target: T1, human αvβ6 on 293F:huβ6 cells; test: competition binding on 293F cells; 2nM m2A2-AF647 competitor
[9] = target: T1, human αvβ6 on 293F:huβ6 cells; test: as above

EC50 [1]: 0.5 nM
EC50 [2]: 0.4 nM
binding result [3]: no binding
binding result [4]: binds
EC50 [5]: 3 nM
EC50 [6]: 0.5 nM
EC50 [7]: 0.4 nM
EC50 [8]: 3 nM
EC50 [9]: 2 nM
B1: murine monoclonal antibody 2A2 (antibody, V domains shown)
VH: EFQLQQSGPELVKPGASVKISCKASGYSFTDYNVNWVKQSNGKSLEWIGVINPKYGTTRYNQKFKGKATLTVDKPSSTAYMQLNSLTSEDSAVYYCTRGLNAWDYWGQGASVTVSS
VL: DIQMTQSPASLSASVGETVTITCGASENIYGALNWYQRKQGKSPQLLIYGATNLADGMSSRFSGSGSGRQYSFKISSLHPDDVATYYCQNVLTTPYTFGGGTKLEIK
notes: Mouse hybridoma IgG; also called m2A2; mouse 2A2

— US20250242041A1 (Seagen, published 2025)
